System: peptide library, one residue held at a place counted from the S/T acceptor
Assay: relative phosphorylation of the sub-library (ratio to the mean residue at this position); higher = residue favoured
Settings: human
Outline: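 Spots on streptavidin membranes were phosphorimaged and quantified by densitometry to measure phosphorylation of biotinylated degenerate peptide sub-libraries by purified recombinant kinases, human or orthologue constructs. The reactions ran in 384-well plates for 90 min under kinase-specific conditions, with peptides at 50 μM and 50 μM ATP spiked with γ-32P-ATP. Relative sub-library phosphorylation is the ratio to the mean residue at that position.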

GAK, construct: aa24-359, sequence (O14976 24-359, looked up): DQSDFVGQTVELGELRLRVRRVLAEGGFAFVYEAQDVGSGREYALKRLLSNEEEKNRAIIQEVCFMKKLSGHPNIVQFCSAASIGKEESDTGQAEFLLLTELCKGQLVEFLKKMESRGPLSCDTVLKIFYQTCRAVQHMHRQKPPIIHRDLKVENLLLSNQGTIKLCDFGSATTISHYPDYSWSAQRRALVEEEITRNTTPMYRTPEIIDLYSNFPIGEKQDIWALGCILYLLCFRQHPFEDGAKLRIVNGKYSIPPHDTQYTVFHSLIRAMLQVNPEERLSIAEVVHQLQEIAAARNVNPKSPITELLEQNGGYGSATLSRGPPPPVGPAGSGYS
GSK3A, construct: Full length, sequence (P49840 whole entry, looked up): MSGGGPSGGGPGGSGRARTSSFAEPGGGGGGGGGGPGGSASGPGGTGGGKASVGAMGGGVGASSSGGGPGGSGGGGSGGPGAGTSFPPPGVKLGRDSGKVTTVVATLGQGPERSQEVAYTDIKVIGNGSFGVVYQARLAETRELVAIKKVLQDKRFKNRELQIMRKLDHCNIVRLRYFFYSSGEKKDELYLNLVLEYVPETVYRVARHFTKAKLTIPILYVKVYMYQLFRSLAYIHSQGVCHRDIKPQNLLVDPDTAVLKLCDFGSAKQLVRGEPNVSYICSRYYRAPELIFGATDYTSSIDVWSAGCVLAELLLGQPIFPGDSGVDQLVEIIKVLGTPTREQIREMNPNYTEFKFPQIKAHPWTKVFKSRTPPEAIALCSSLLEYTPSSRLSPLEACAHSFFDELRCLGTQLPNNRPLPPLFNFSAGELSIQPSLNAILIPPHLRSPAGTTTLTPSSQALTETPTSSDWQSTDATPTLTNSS

DYRK3, construct: Full length (from UniProt O43781)
relative phosphorylation
Settings	at +1	at +2	at +3	at +4	at -1	at -2	at -3	at -4	at -5
A fixed	0.74	0.843	0.891	0.767	1.14	1.24	0.635	0.856	0.845
D fixed	0.16	0.894	0.621	0.723	0.447	0.181	0.404	0.698	0.663
E fixed	0.175	0.758	0.613	0.713	0.554	0.207	0.368	0.747	0.656
F fixed	0.266	1.19	1.12	1.31	0.777	0.378	0.422	0.876	1.07
G fixed	0.732	0.679	1.47	1.07	1.13	0.719	1.59	1.01	0.936
H fixed	0.3	1.2	1.27	1.16	0.991	0.556	0.621	0.945	1.12
I fixed	0.513	1.33	0.817	0.973	0.709	0.643	0.418	0.905	1.05
K fixed	0.494	0.7	0.727	0.926	1.42	0.746	0.92	1.1	1.11
L fixed	0.329	1.41	1.23	0.916	0.882	0.651	0.444	0.887	0.892
M fixed	0.337	1.41	1.21	1.35	1.22	0.67	0.467	0.903	0.84
N fixed	0.289	0.883	0.777	0.919	0.783	0.555	0.473	0.71	0.809
P fixed	8.02	0.703	1.93	0.889	1.27	1.93	0.514	0.886	0.898
Q fixed	0.442	0.889	0.834	0.932	1	0.583	0.518	0.688	0.742
R fixed	2.71	1.05	1.09	1.13	2.12	6.5	7.91	3.23	2.49
V fixed	0.987	1.1	0.661	0.785	0.726	0.724	0.357	0.664	0.716
W fixed	0.257	0.91	0.887	1.38	0.64	0.386	0.473	0.964	0.942
Y fixed	0.242	1.04	0.858	1.06	1.18	0.336	0.473	0.928	1.21
pThr fixed	0.328	1.44	0.549	0.977	0.353	0.349	0.492	0.812	0.954
pTyr fixed	0.363	0.759	0.769	0.815	0.735	0.287	0.542	0.74	1.15

GAK, construct: aa24-359 (from UniProt O14976)
relative phosphorylation
Settings	at +1	at +2	at +3	at +4	at -1	at -2	at -3	at -4	at -5
A fixed	0.783	1.19	0.848	0.882	0.845	0.985	0.819	0.986	0.954
D fixed	0.647	0.954	0.997	0.884	0.75	0.753	0.898	1.14	1.08
E fixed	0.658	0.86	1.05	0.891	0.653	0.778	0.912	1.49	1.03
F fixed	0.643	0.918	0.862	1.02	0.904	0.801	0.709	0.856	0.879
G fixed	5.69	1.37	1.28	0.908	0.974	1.08	0.888	0.947	0.831
H fixed	0.829	1.13	1.19	0.96	1.13	1.13	1.11	1.11	1.1
I fixed	0.588	0.741	0.822	0.849	0.824	0.879	0.935	0.852	1.06
K fixed	0.766	1.08	1.21	1.21	2.28	1.1	1.43	1.12	1.09
L fixed	0.615	0.801	0.914	0.987	0.808	0.994	1.01	0.83	0.802
M fixed	0.649	0.792	0.825	0.896	0.813	1.06	1.07	0.875	0.853
N fixed	0.841	1.28	1.22	0.913	0.973	1.65	1.17	0.941	0.978
P fixed	0.729	0.736	0.801	0.834	1.23	0.687	0.751	0.69	0.696
Q fixed	0.696	1.1	1.05	1	0.965	1.22	1.16	1.04	0.853
R fixed	0.833	1.26	1.2	1.34	1.3	1.28	1.43	1.14	1.15
V fixed	0.59	0.902	0.974	0.882	0.914	0.86	0.901	0.959	1
W fixed	0.769	1.03	0.82	1.59	0.803	0.848	0.849	1.03	1.05
Y fixed	0.672	0.831	0.931	0.947	0.838	0.9	0.959	0.998	1.6
pThr fixed	0.904	1.95	1.38	1.44	1.22	1.63	1.69	1.55	1.23
pTyr fixed	0.674	0.963	0.94	0.772	0.884	1.09	1.27	1.23	1.27

GSK3A, construct: Full length (from UniProt P49840)
relative phosphorylation
Settings	at +1	at +2	at +3	at +4	at -1	at -2	at -3	at -4	at -5
A fixed	0.877	0.899	0.742	0.852	1.1	1.42	1.14	1.28	1.14
D fixed	0.815	1.25	1.32	1.25	1.15	1.14	1.36	1.39	1.36
E fixed	0.758	0.904	2.08	3.03	1.09	0.906	1.26	1.4	1.05
F fixed	0.673	0.931	0.889	0.752	0.598	0.686	0.525	0.686	0.903
G fixed	1.19	0.957	1.02	0.825	1.47	1.38	2.61	1.43	0.995
H fixed	0.771	1.04	0.935	0.772	0.927	0.741	0.668	0.915	0.983
I fixed	0.564	0.621	0.679	0.788	0.506	0.719	0.507	0.661	0.727
K fixed	1.18	1.33	0.933	1.14	1.3	1.02	0.824	1.06	1.16
L fixed	0.552	0.772	0.803	0.862	0.61	0.638	0.536	0.715	0.811
M fixed	0.607	0.883	0.812	0.864	0.691	0.662	0.604	0.747	0.739
N fixed	1.05	1.38	1	0.922	1.28	1.25	1.21	1.13	0.974
P fixed	3.8	0.825	0.899	0.728	1.5	2.02	1.65	1.42	1.31
Q fixed	0.858	1.35	1.2	1.03	1.35	1	1.09	0.894	0.887
R fixed	1.15	1.03	1.01	0.82	1.31	1.26	1.21	0.951	1.01
V fixed	0.634	0.703	0.718	0.695	0.616	0.777	0.605	0.721	0.963
W fixed	0.793	1.15	1.07	0.766	0.724	0.728	0.592	0.828	1.1
Y fixed	0.725	0.979	0.873	0.908	0.77	0.653	0.614	0.772	0.882
pThr fixed	0.876	0.928	3.67	62.8	0.866	1.11	1.06	1.82	1.07
pTyr fixed	1.15	1.09	2.41	3.12	1.52	1.34	1.37	1.45	1.69
